Reference: publication PMC2974439 (Biochemistry, 2010)
Values belong to the molecule of their own block, whether it stands above or below them.

Legend:
H6-CmnO = assay: co-purification after co-expression
EntF (EntF-H6) = EntF (EntF-H6) (Escherichia coli, UniProt P11454); assay: substrate activation assay; format: biochemical; conditions: without YbdZ; two values for two different preparations
EntF+YbdZ = EntF+YbdZ (Escherichia coli, UniProt P11454); assay: substrate activation assay; format: biochemical; conditions: co-purified with YbdZ; two values for two different preparations
Sequence of EntF+YbdZ (P11454 whole entry): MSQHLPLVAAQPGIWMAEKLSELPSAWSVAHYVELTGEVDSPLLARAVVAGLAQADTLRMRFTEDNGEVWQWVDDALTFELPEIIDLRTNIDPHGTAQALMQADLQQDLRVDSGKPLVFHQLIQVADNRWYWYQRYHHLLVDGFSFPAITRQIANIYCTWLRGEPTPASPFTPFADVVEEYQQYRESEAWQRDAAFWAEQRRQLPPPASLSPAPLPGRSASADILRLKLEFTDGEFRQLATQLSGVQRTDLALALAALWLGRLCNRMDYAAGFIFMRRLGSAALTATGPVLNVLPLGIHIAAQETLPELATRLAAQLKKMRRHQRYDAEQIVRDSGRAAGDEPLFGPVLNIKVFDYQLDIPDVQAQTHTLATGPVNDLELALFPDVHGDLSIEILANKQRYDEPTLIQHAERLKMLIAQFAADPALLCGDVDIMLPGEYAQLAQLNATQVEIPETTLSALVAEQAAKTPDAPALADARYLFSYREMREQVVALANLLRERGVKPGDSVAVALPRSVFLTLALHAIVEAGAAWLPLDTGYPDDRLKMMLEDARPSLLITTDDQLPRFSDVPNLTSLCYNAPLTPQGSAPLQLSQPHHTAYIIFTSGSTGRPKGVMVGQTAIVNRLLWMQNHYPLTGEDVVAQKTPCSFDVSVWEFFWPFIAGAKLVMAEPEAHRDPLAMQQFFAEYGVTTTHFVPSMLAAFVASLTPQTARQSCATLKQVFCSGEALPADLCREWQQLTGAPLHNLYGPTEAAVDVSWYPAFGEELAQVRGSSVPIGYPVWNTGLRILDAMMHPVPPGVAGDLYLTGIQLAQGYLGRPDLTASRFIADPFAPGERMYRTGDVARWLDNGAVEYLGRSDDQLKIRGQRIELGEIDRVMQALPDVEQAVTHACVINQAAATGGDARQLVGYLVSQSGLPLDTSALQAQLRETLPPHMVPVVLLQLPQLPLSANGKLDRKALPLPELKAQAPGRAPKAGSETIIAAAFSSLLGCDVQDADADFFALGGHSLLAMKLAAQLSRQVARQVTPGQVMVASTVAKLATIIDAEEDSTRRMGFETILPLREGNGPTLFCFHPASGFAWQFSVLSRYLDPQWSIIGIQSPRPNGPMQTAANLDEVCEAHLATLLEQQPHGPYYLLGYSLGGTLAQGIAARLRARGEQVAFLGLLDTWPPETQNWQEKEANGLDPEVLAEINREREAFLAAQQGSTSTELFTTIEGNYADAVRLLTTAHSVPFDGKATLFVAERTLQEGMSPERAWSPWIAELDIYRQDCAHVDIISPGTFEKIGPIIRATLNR
Sequence of EntF+YbdZ (P18393 2-72 partner limits assumed): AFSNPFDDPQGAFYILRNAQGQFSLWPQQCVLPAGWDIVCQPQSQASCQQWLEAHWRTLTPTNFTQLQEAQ

[1] = substrate: O=C(O)c1cccc(O)c1O; assay: substrate activation assay; format: biochemical, Escherichia coli; conditions: without YbdZ

Sequence of EntF (EntF-H6) (P11454 whole entry): as the sequence (P11454 whole entry) above

- stoichiometry N (mol CmnN per mol H6-CmnO) (H6-CmnO): 0.42
Molecule: CmnN (natural protein)

Molecule: N[C@@H](CO)C(=O)O [L-Ser]
- Km ^a (EntF (EntF-H6)): 7162.1 ± 413.5, 4589.5 ± 313.0 μM
- Km ^a (EntF+YbdZ): 655.9 ± 53.0, 240.1 ± 46.7 μM

B1: EntE (H6-EntE) (Escherichia coli K-12) (protein)
chain: MSIPFTRWPEEFARRYREKGYWQDLPLTDILTRHAASDSIAVIDGERQLSYRELNQAADNLACSLRRQGIKPGETALVQLGNVAELYITFFALLKLGVAPVLALFSHQRSELNAYASQIEPALLIADRQHALFSGDDFLNTFVTEHSSIRVVQLLNDSGEHNLQDAINHPAEDFTATPSPADEVAYFQLSGGTTGTPKLIPRTHNDYYYSVRRSVEICQFTQQTRYLCAIPAAHNYAMSSPGSLGVFLAGGTVVLAADPSATLCFPLIEKHQVNVTALVPPAVSLWLQALIEGESRAQLASLKLLQVGGARLSATLAARIPAEIGCQLQQVFGMAEGLVNYTRLDDSAEKIIHTQGYPMCPDDEVWVADAEGNPLPQGEVGRLMTRGPYTFRGYYKSPQHNASAFDANGFYCSGDLISIDPEGYITVQGREKDQINRGGEKIAAEEIENLLLRHPAVIYAALVSMEDELMGEKSCAYLVVKEPLRAVQVRRFLREQGIAEFKLPDRVECVDSLPLTAVGKVDKKQLRQWLASRASA
- Km [1]: 2.9 ± 0.4 µM
